Measurements from patent publication US20150231240A1, “ANTI-C16ORF54 ANTIBODIES AND METHODS OF USE THEREOF” (priority 2012, published 2015).

T1: huC16orf54 (cells expressing C16orf54) (Homo sapiens, UniProt Q6UWD8)
T1 construct: expressed in transfected cells; host or cells: murine sarcoma cell line, retrovirally transduced (inferred from b529 and b531; b587 says only 'cells expressing C16orf54')
T1 sequence (Q6UWD8 1-224): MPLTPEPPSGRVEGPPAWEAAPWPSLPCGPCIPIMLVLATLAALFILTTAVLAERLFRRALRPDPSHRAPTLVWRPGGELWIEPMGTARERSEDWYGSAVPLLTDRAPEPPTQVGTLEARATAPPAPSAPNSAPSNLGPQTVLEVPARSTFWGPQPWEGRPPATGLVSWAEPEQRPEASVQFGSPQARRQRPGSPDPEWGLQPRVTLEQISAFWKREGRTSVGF

T2: N-terminal 32 amino acids of huC16orf54 (Homo sapiens, UniProt Q6UWD8)
T2 sequence (Q6UWD8 1-32 limits assumed): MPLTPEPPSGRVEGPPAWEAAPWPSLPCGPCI

T3: human C16orf54 (Homo sapiens, UniProt Q6UWD8)
T3 construct: expressed in transfected cells; host or cells: murine sarcoma cells (D42M1-huC16orf54)
T3 sequence (Q6UWD8 1-224): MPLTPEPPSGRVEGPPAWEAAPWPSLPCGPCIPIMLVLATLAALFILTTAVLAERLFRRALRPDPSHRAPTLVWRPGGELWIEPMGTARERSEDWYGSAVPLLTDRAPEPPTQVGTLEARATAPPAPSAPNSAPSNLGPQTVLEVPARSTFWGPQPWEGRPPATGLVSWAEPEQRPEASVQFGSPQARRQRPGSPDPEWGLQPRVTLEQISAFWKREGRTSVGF

T4: human C16orf54 extracellular domain peptides (Homo sapiens, UniProt Q6UWD8)
T4 sequence (Q6UWD8 1-31): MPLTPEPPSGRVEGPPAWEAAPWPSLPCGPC

T5: extracellular domain of c16orf54 (amino acids 1-31) fused to human IgG1 Fc (Homo sapiens, UniProt Q6UWD8)
T5 construct: the extracellular domain of c16orf54 (amino acids 1-31) either N terminal or C-terminal to a human IgG1 Fc domain; made in house; host or cells: 293 T cells, transient; Protein A purification
T5 sequence (Q6UWD8 1-31 limits assumed): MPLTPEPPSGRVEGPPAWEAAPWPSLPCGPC


Experiments:
[1] = biological target: T1, huC16orf54 (cells expressing C16orf54); experiment: Competition ELISA to establish relative binding properties; details: hybridoma supernatant; 2 hours with competing mixture of antibodies of a different isotype
Protocol: Another competition ELISA was performed to establish relative binding properties. Individual anti-huC16orf54 isotyped (e.g., IgG2a) antibody containing hybridoma supernatants were allowed to bind to huC16orf54 in individual wells of an ELISA plate containing cells expressing C16orf54. After 30 min, the wells were washed. Then individual wells of the ELISA plate were incubated for 2 hours with either buffer or a competing mixture of anti-huC16orf54 isotyped antibodies (of a different isotype, e.g., IgG1 and IgG2b in the case of an IgG2a antibody). After washing, the wells were incubated with a specific secondary antibody (for example, Jackson Immunologicals Goat×IgG2a HRP—Product#115-035-206) and detected with SuperSignal® ELISA Pico Chemiluminescent substrate (Thermo Scientific—Product#37069). For each anti-huC16orf54 isotyped (e.g., IgG2a) antibody containing hybridoma supernatant, relative binding properties were calculated as follows: [(Average luminescence in wells incubated with buffer)−(Average luminescence in wells incubated with mixture of anti-huC16orf54 isotyped antibodies of a different isotype)]/[(Average luminescence in wells incubated with buffer)].

[2] = biological target: T2, N-terminal 32 amino acids of huC16orf54; experiment: Off-rate screen of hybridoma supernatants on OctetQK384 (biolayer interferometry); assay type: binding; details: calculated off-rate
Protocol: Eight anti-huC16orf54 monoclonal antibodies were further screened for binding and subsequent off-rate analysis using the OctetQK384® sytem (ForteBio). Hybridoma supernatants were screened for association to and dissocation from streptavidin sensors coated with the N-terminal 32 amino acids of huC16orf54 coupled to biotin, and the calculated offrates (kdis) are shown in Table 31. Cloned hybridomas with […] off-rates were carried forward for antibody purification.

[3] = biological target: T2, N-terminal 32 amino acids of huC16orf54; experiment: Affinity measurements of purified antibodies on OctetQK384; assay type: binding; details: purified antibody, streptavidin sensors coated with N-terminal 32 amino acids of huC16orf54 coupled to biotin
Protocol: Affinity measurements of purified anti-huC16orf54 antibodies were carried out on the OctetQK384® sytem (ForteBio). After coating streptavidin sensors with the N-terminal 32 amino acids of huC16orf54 coupled to biotin at the C-terminus, association and dissociation of purified anti-huC16orf54 antibodies was monitored. KD values were derived using ForteBio's software.

human C16orf54 = biological target: T3, human C16orf54; experiment: Flow cytometry reactivity with sarcoma cells expressing human C16orf54 (fold change over isotype); assay type: binding
Protocol: (§1) Anti-C16orf54 antibodies which bound to human C16orf54 were tested for their reactivity with human C16orf54 and their crossreactivity with C16orf54 from cynomolgous monkeys (cyno C16orf54) using flow cytometry. Sarcoma cells transfected with and expressing human C16orf54 or cyno C16orf54 were washed with PBS with 0.1% BSA, incubated with FcX receptor blocking solution (BioLegend) for 15 minutes, incubated with 10 μg/ml of anti-C16orf54 antibody for 1 hour at 4° C., washed twice with PBS with 0.1% BSA, incubated with 20 μg/ml of R-Phycoerythrin-AffiniPure F(ab′)2 Fragment Goat Anti-Mouse IgG, Fcγ Fragment Specific (Jackson ImmunoResearch) for 30 minutes at 4° C., washed twice with PBS with 0.1% BSA, incubated with the viability dye TO-PRO-3 iodide (Life Technologies), and immediately analyzed on a MACSQuant Analyzer instrument (Miltenyi). For each cell line and anti-C16orf54 antibody, a fold change was derived by dividing the median fluorescence intensity for Phycoerythrin in the live cell population for the anti-C16orf54 antibody by the median fluorescence intensity for Phycoerythrin in the live cell population for the IgG isotype control antibody.

[4] = biological target: T4, human C16orf54 extracellular domain peptides; experiment: C16orf54 peptide ELISA, human extracellular domain peptides; assay type: binding; details: peptide ELISA, 10 μg/ml antibody
Protocol: (§2) Anti-C16orf54 antibodies which bind to human C16orf54, including antibodies that are crossreactive with cyno C16orf54, were tested for their binding to various peptides derived from C16orf54 in a peptide ELISA. A 384-well high binding black microplate (Greiner) was incubated with 2 μg/ml of protein (human, cyno, or mouse extracellular domain peptides) for 16 hours, incubated for 1 hr with a blocking buffer (PBS with 5% Fetal Bovine Serum), washed four times with TBS with Tween, incubated for 1 hour with 10 μg/ml of anti-C16orf54 antibody, washed four times with TBS with Tween, incubated for 1 hour with 10 μg/ml of Peroxidase-AffiniPure Goat Anti-Mouse IgG, Fcγ Fragment Specific (Jackson ImmunoResearch), washed four times with TBS with Tween, and peroxidase was detected with a luminometer (Molecular Devices) upon addition of SuperSignal® ELISA Pico Chemiluminescent Substrate (Thermo Scientific). The luminescence signal was determined.

[5] = test system: human C16orf54 extracellular domain peptides; experiment: as above; assay type: binding; details: human, cyno, or mouse extracellular domain peptides, not told apart; 10 μg/ml antibody
Protocol: as §2

[6] = test system: KG-1 (acute myeloid leukemia) xenograft; assay type: in vivo, NOD-SCID mice
Protocol: Subcutaneous tumors are generated by injection of 1×10^7 cancer cells in a mixture of PBS (without magnesium or calcium) and BD Matrigel™ (BD Biosciences) at a 1:1 ratio in the right flank of female SCID or nu^−/− mice. The injected total volume per mouse is […] with 50% being Matrigel (BD Biosciences). Mice are randomized once tumors reach a size between 65-200 mm^3. Antibodies are administered weekly, and body weights and tumors are measured once and twice weekly, respectively. Tumor volume is calculated as described (van der Horst et al. (2009) Neoplasia 11: 355-364). As a negative control, mice are injected with either purified mouse IgG or PBS; or a purified monoclonal antibody that recognizes an antigen other than C16orf54.
Anti-C16orf54 antibodies were tested for their anti-tumor activity in an animal-tumor model. For these studies, the cell line KG-1 (acute myeloid leukemia) was obtained from ATCC and cultured according to the suppliers' protocols. Animals were obtained from Taconic (Hudson, N.Y.). Studies were conducted with anti-C16orf54 antibodies and antibody-drug conjugates (ADCs) of these antibodies.
In these experiments, 4-6 week-old immunodeficient NOD-SCID female mice were used for the KG-1 tumor model. Mice were subcutaneously injected on the right flank with 6×10^6 viable cells (KG-1) in a mixture of PBS (without magnesium or calcium) and BD Matrigel™ (BD Biosciences). Once the tumor reached a size between 65-200 mm^3 mice were randomized. Anti-C16orf54 antibodies were administered weekly, and bodyweights and tumors were measured once and twice weekly, respectively. Tumor volume was calculated as described (van der Horst et al., supra). Experiments were performed on groups of at least eight animals per experimental point.
Statistical significance between treatment and control groups was calculated using the Graphpad Prism® software package and applying Student's two-tailed t-test. A p-value of less than 0.05 was considered significant.

C16orf54 ECD peptides = experiment: Peptide crossblocking (Table 36); assay type: binding
[7] = test system: cyno C16orf54 extracellular domain peptides; experiment: C16orf54 peptide ELISA, cyno extracellular domain peptides; assay type: binding; details: 10 μg/ml antibody
Protocol: as §2

[8] = biological target: T5, extracellular domain of c16orf54 (amino acids 1-31) fused to human IgG1 Fc; experiment: C16orf54 peptide-Fc fusion protein ELISA; assay type: binding; details: serial dilution of antibody; HRP-conjugated anti mouse secondary
Protocol: Anti-C16orf54 antibodies which bind to human C16orf54, including antibodies that are crossreactive with cyno C16orf54, were tested for their binding to various peptides derived from C16orf54 that were fused to human IgG (e.g., IgG1) constant regions to generate various peptide-Fc fusion proteins in an Fc-based ELISA. An exemplary Fc sequence comprises an IgG1 Hinge region sequence and IgG1 CH3 and […] domain sequences.
The fusion proteins were transiently expressed in 293 T cells. Protein was purified from the 293 expression supernatants by Protein A-based affinity purification. Exemplary C16 peptide-Fc fusion constructs that were made and purified are shown with their protein yield in Table 38. ELISA assays were performed by coating 384 well plates with the fusion proteins overnight at 4C. Antibodies were analyzed by serial dilution with concentrations ranging from 40 ug/mL to […]. Binding was detected with an HRP-conjugated anti mouse secondary antibody.

cyno C16orf54 = experiment: Flow cytometry cross-reactivity with sarcoma cells expressing cyno C16orf54 (fold change over isotype); assay type: binding, cynomolgous monkeys; details: 10 μg/ml antibody
Protocol: as §1

Sequence of cyno C16orf54 (as listed by the source): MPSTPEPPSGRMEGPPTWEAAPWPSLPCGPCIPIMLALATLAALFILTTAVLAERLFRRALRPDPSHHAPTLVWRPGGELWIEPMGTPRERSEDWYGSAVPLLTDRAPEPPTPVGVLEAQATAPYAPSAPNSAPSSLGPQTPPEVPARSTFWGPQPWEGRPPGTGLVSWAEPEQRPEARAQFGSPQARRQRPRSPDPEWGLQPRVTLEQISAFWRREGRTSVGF
Sequence of cyno C16orf54 extracellular domain peptides (as listed by the source): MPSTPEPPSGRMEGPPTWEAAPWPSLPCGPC

Molecule | relative binding properties: signal loss upon incubation with competition mixture [1] | kdis [2] [s⁻¹] | kdis [3] [s⁻¹] | kon [3] [M⁻¹ s⁻¹] | binding to C16orf54-expressing cells (dual binders) (human C16orf54) | binding to human C16orf54 (flow cytometry) (human C16orf54; sarcoma cells expressing human C16orf54, 10 μg/ml antibody) | Human ECD & ECD fragments bound by antibody [4] | binding to peptides derived from the extracellular domain of C16orf54 (peptide ELISA) [5] | tumor growth inhibition (in words) ([6]; KG-1 xenograft, compared to control IgG, antibodies weekly) | TGI (tumor growth inhibition) ([6]; Table 42, KG-1 AML model, NOD-SCID mice, weekly administration) [%] | Mean (tumor volume) ([6]; Table 42, KG-1 AML model, NOD-SCID mice, weekly administration, in mm³ (unit assumed)) | Peptide crossblocking (C16orf54 ECD peptides) | Cyno ECD bound by antibody [7] | binding to peptide-Fc fusion proteins (Fc-based ELISA) [8] | Median fold change relative to IgG control in F279-cyno-C16orf54 cells (cyno C16orf54)
R29-7-2A: murine anti-C16orf54 monoclonal antibody, IgG2b; VH SEQ ID NO: 4, VL SEQ ID NO: 6 (antibody, V domains shown, R29-7-2A heavy chain variable region; R29-7-2A light chain variable region) VH: MLLGLKWVFFVVFYQGVPCEVQLVESGGGLIQPKGSLKLSCVASGFSFNTHAMNWVRQAPGKGLEWVARIRSKSNNYARYYADSVKDRFTISRDDSQSILYLQMNNLKTEDTAMYYCVKQGDGGFAYWGQGTLVTVSA VL: MDSQAQVLMLLLLWVSGTCGDIVMSQSPSSLAVSVGEKVTMSCKSSQSLLYSSNQKNYLAWYQQRPGQSPKLLIYWASARESGVPDRFTGSGSGTDFTLTISSVKAEDLAVYYCQQYYSYPPTFGAGTKVELK | little signal loss upon incubation with the competition mixture | 0.00707 | 4.12e-05 ± 9.7e-06 | 31900 ± 4600 | bind to C16orf54-expressing cells | bind human C16orf54 | aa1-31, aa1-15, aa9-24 | bind to the various peptides derived from the extracellular domain (ECD) of C16orf54 | did not induce any statistically significant tumor growth inhibition | −17 | 2572.5 | aa1-31 |  |  | 
R29-8-75B: murine anti-C16orf54 monoclonal antibody; VH SEQ ID NO: 56, VL SEQ ID NO: 58 (antibody, V domains shown, R29-8-75B heavy chain variable region; R29-8-75B light chain variable region) VH: MDSRLNLVFLVLILKGVQCDVQLVESGGGLVQPGGSRKLSCAASGFTFSRFGMHWVRQAPEKGLEWVAYISSGSSTIYYADTVKGRFTISRDNPKNTLFLQMTSLRSEDTAMYYCARVDYDVALAYWGQGTLVTVSA VL: MKLPVRLLVLMFWIPASSSGVLMTQTPLSLPVSLGDQASISCRSSQSIVHRNGNTYLEWYLQKPGQSPKLLIYKVSNRFSGVPDRFSGSGSGTDFTLKISRVEAEDLGVYYCFQGSQWTFGGGTKLEIK |  |  |  |  | bind to C16orf54-expressing cells |  | aa1-31, aa1-15, aa9-24 | bind to the various peptides derived from the extracellular domain (ECD) of C16orf54 |  |  |  | aa1-31, aa9-24 | aa1-31 | able to bind to the peptide-Fc fusion proteins | 
R29-8-58C: murine anti-C16orf54 monoclonal antibody; VH SEQ ID NO: 40, VL SEQ ID NO: 42 (antibody, V domains shown, R29-8-58C heavy chain variable region; R29-8-58C light chain variable region) VH: MNFGFSLIFLVLVSKGVQCEVKLVESGGGLVKPGGSLKFSCAASGFTFSSYAVSWVRQTPEKRLEWVASITSGGRSYYPDSVKGRFTISRDNARSMLYLHMSSLRSEDTAMYYCTRGWDENDLWGQGTTLTVSS VL: MKLPVRLLVLMFWIPASSSDVVMTQTPLSLFVSLGDQASISCRSSQSLLYSNGNTYLHWYLQRPGQSPQLLIYKVSNRFSGVPDRFSGSGSGTDFTLKISRVEAEDLGVYFCSQTTHVPWTFGGGTKLEIK |  |  |  |  |  |  |  |  |  |  |  |  |  |  | 1.4
